From patent US20130184211A1 (NEW YORK UNIVERSITY, published 2013)
Blank lines part the entries; values can stand above or below the binder they belong to.

Tests used:
[1] = molecular target: T1, complex of V5-tagged FGFR1c and FLAG-tagged membrane-spanning murine Klotho isolated from transfected … (murine, UniProt O35082 35-1014); assay: co-immunoprecipitation competition; competitor FGF23^28-251 (1 nM)
T1 construct: Isolated from cell lysate on anti-V5 agarose beads; also called FGFR1c-Klotho complex (co-immunoprecipitated); binary FGFR-Klotho complex; not shown: FGFR1c, V5-tagged, expressed from a vector in HEK293-Klotho cells
Text: (§1) Co-immunoprecipitation may also be used to determine that an agent specifically binds the binary FGFR-Klotho complex. One aspect of the present invention utilizes co-immunoprecipitation studies. Subconfluent cultures of a HEK293 cell line ectopically expressing the FLAG-tagged membrane-spanning form of murine Klotho were transfected with expression vectors for V5-tagged FGFR1c, FGFR3c, or FGFR4. Two days later, the cells were lysed, and FGFR-Klotho complexes were isolated from cell lysate using anti-V5 agarose beads. The beads were then incubated with either FGF23¹⁸⁰⁻²⁵¹ or FGF23²⁸⁻²⁵¹ alone, or with mixtures of FGF23²⁸⁻²⁵¹ with either increasing FGF23¹⁸⁰⁻²⁵¹ or increasing FGF23¹⁸⁰⁻²⁰⁵. Bead-bound proteins were resolved on SDS-polyacrylamide gels, transferred to nitrocellulose membranes, and labeled using antibodies to Klotho, FGF23, and V5 epitope tag.

[2] = molecular target: T1, complex of V5-tagged FGFR1c and …; assay: co-immunoprecipitation competition; competitor FGF23^28-251
Text: as §1
Target sequence in this assay (O35082 35-1014, one chain of several): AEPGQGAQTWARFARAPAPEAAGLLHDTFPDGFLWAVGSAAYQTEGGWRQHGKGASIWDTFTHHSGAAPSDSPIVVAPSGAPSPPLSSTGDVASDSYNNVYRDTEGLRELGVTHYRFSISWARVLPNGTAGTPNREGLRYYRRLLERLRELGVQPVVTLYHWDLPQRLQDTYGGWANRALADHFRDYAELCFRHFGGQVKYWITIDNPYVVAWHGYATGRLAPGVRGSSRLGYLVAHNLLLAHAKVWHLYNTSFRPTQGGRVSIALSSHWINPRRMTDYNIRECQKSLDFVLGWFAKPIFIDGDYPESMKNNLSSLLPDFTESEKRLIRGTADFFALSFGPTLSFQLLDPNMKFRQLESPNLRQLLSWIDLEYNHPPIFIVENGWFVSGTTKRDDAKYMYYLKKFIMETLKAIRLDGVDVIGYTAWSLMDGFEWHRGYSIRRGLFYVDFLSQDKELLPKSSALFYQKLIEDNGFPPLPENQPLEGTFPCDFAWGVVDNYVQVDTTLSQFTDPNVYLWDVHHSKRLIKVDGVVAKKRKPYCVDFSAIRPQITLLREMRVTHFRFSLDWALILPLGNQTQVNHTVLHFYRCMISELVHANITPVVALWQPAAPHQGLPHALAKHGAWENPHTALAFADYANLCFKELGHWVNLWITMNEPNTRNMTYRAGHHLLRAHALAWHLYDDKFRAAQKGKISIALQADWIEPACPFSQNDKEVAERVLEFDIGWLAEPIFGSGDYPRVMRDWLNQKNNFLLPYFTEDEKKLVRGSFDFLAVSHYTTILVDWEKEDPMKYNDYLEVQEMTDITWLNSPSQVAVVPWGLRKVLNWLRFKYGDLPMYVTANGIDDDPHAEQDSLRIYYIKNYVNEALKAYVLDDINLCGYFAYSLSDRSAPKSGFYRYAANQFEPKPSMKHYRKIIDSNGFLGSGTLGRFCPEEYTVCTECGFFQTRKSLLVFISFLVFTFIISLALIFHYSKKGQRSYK

[3] = molecular target: T2, complex of V5-tagged FGFR4 and FLAG-tagged membrane-spanning murine Klotho isolated from transfected … (murine, UniProt O35082 35-1014); assay: as above
T2 construct: Isolated from cell lysate on anti-V5 agarose beads; also called FGFR4-Klotho complex; binary FGFR-Klotho complex; not shown: FGFR4, V5-tagged, expressed from a vector in HEK293-Klotho cells
T2 sequence (O35082 35-1014, one chain of several): as above
Text: as §1

[4] = molecular target: T3, complex of V5-tagged FGFR3c and FLAG-tagged membrane-spanning murine Klotho isolated from transfected … (murine, UniProt O35082 35-1014); assay: as above
T3 construct: Isolated from cell lysate on anti-V5 agarose beads; also called FGFR3c-Klotho complex; binary FGFR-Klotho complex; not shown: FGFR3c, V5-tagged, expressed from a vector in HEK293-Klotho cells
T3 sequence (O35082 35-1014, one chain of several): as above
Text: as §1

molar excess over FGF23^28-251 that completely blocked its binding [1]: 76 fold molar excess
B1: N-terminally hexahistidine-tagged 72-amino acid C-terminal tail of human FGF23 (S180 to I251), FGF23^180-251 (peptide)
peptide: SAEDDSERDPLNVLKPRARMTPAPASCSQELPSAEDNSPMASDPLGVVRGGRVNTHAGGTGPEGCRPFAKFI
notes: Expressed in E. coli; also called FGF23 C-terminal tail peptide; C-terminal tail of FGF23; not shown: N-terminal hexahistidine tag (six His)

fold reduced potency compared to the FGF23^180-251 peptide [2]: 100 fold
fold reduced potency compared to the FGF23^180-251 peptide [3]: > 100 fold
fold reduced potency compared to the FGF23^180-251 peptide [4]: > 100 fold
B2: FGF23 C-terminal region peptide (S180 to S205), FGF23^180-205 (peptide)
peptide: SAEDDSERDPLNVLKPRARMTPAPAS
notes: Made by solid phase synthesis (GenScript)
